Experimental findings from patent US7998940B2, “Aptamers to von Willebrand factor and their use as thrombotic disease therapeutics” (Archemix Corp., priority 2004, dated 2011) are described below.

Read-outs that look alike come from different tables or passages of the source. Oligonucleotides are written 5' to 3', each unit as a sugar letter and its base; * is a phosphorothioate linkage, no mark a phosphodiester; rarer units and linkages stand in square brackets, end groups in braces. Plain capitals give the bases only. r = 2'-OH (RNA); f = 2'-fluoro

Series [1] concerns the target T1, human vWF A1 domain (SEQ ID NO 5) (Homo sapiens, UniProt P04275, T1381A). The series can be described thus: dot blot KD determination, human vWF A1 domain.
Series [2] deals with T1, human vWF A1 domain (SEQ ID NO 5). Put plainly: 3-point dot blot screen, human vWF A1 domain. The class given is binding. The conditions noted are these: 100 nM human vWF A1 domain. In short, it runs like this: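 Values are ratios of aptamer fraction retained on nitrocellulose with 100 nM vWF A1 domain (human or rabbit) versus a no-protein control. Unique clones from rounds 9 and 12 pools were transcribed, desalted and 5'-32P labeled before this three-point dot blot screen.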

Series [3] concerns rabbit vWF A1 domain (SEQ ID NO 6). Put plainly: 3-point dot blot screen, rabbit vWF A1 domain. The series is classed as binding. The conditions noted are these: 100 nM rabbit vWF A1 domain, ratio of fraction bound with target to without. Put shortly:
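Rabbit vWF A1 domain binding was screened by dot blot using three conditions: no target protein, human vWF, and rabbit vWF A1 domain at 100 nM (20 nM in the screen run twice). Radiolabeled aptamer bound to nitrocellulose was quantified, and results are expressed as the ratio of bound fraction with protein to bound fraction without protein.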

[4] abbreviates: rRfY aptamers, ratio of fraction bound with target to fraction bound without target.
Setting [5] is: read-out: human A1 KD, rRfY aptamers, 8 point titration of human vWF A1 domain.
Setting [6] is: DNA SELEX 1 aptamers, ratio of fraction bound with target to without.
Setting [7] is: read-out: Human A1 KD, DNA SELEX 1 aptamers, competition dot blot, 100 nM protein, cold competitor titration.

T1 sequence (P04275 with tags, fused parts or gaps T1381A): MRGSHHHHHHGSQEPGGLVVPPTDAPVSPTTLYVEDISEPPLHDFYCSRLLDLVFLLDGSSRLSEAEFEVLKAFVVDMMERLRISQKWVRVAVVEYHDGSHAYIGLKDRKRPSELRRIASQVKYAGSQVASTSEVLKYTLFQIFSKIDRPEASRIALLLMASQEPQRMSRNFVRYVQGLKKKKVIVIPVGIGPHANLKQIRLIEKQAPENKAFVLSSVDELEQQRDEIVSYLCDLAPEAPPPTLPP
Chain of rabbit vWF A1 domain (SEQ ID NO 6) (as listed by the source): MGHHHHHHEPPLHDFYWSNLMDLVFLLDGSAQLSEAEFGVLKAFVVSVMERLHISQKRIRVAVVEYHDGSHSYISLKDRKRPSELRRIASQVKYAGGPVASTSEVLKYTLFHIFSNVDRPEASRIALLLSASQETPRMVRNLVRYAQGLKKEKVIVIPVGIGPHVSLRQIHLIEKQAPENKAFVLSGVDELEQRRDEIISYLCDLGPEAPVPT

Turning to “GATCTGACTAGCGCAATGAGGATGCdTGATGGATTGCTCAGGTC (GATCTGACTAGCGCAATGAGGATGCDTGATGGATTGCTCAGGTC; DNA, backbone and the base at N not given here) [SEQ ID NO 207]”, the “Human vWF A1 domain KD” value in series [1] (DNA 1 minimers, competition dot blot, 10 nM protein) was “No binding”.

B1: AMX198.C6: rRfY aptamer clone (nucleic acid)
chain: rGrGrArGfCrGfCrAfCfUfCrArGfCfCrAfCrGrGfUrGrGfUfCrArGfUfCrArGfUrGrAfUrAfUrGrAfUfUrArArGfUfUfCrArGfCfUrGfUrGrGfCfUrGfUfUfUfCrGrAfCfCfUfCfUfCfUrGfCfUrArGfC
On to B1, for which the “Screen- Human/No Protein” value in series [2] (setting [4]) is recorded as 3.03. In series [3] (rRfY aptamers), the “Screen- Rabbit/No Protein” value was determined as 4.62. Also, in series [1] (setting [5]), the Kd (in general, the constant that tells how readily two partners part at equilibrium) came to 249 nM.

B2: AMX201.H1: rRfY aptamer clone (nucleic acid)
chain: rGrGrArGfCrGfCrAfCfUfCrArGfCfCrAfCfUfUfUrAfCrGrGfUrGrArArArGfUfCfUfCfUfCrGrGrGrGfUfUfCfCrGrArGfUfUrAfCrGrGfUrGfCrGfUfUfUfCrGrAfCfCfUfCfUfCfUrGfCfUrArGfC
For the molecule B2, in series [2] (setting [4]), the “Screen- Human/No Protein” value amounted to 2.61. Further, the “Screen- Rabbit/No Protein” value in series [3] (rRfY aptamers) came out at 2.46. In addition, in series [1] (setting [5]), the Kd is 189 nM.

B3: AMX198.A10: rRfY aptamer clone (nucleic acid)
chain: rGrGrArGfCrGfCrAfCfUfCrArGfCfCrAfCfCrArGfUfUrAfUrGfCfUrGrGfCfUfUfUrGrGfUfCfUfUfUrGrAfCfUrGfUfCfUrGrArGfUrGfUfUfCrGfUfUfUfCrGrAfCfCfUfCfUfCfUrGfCfUrArGfC
Regarding B3, the “Screen- Human/No Protein” value in series [2] (setting [4]) amounted to 1.26. Besides, the “Screen- Rabbit/No Protein” value in series [3] (rRfY aptamers) was determined as 5.74. The Kd in series [1] (setting [5]) was 1860 nM.

B4: AMX198.E5: rRfY aptamer clone (nucleic acid)
chain: rGrGrArGfCrGfCrAfCfUfCrArGfCfCrAfCfUfUfCrGrAfCfUfUfUfCrAfUrGfUfCfUrGrArArGfUfCfCfCfUrGfCrArGfUrGfCrGrArGrArGrAfCrGfUfUfUfCrGrAfCfCfUfCfUfCfUrGfCfUrArGfC
Consider B4, for which the “Screen- Human/No Protein” value in series [2] (setting [4]) was determined as 1.60. For the same molecule, the “Screen- Rabbit/No Protein” value in series [3] (rRfY aptamers) is reported as 1.56. The Kd in series [1] (setting [5]) was determined as 172 nM.

B5: AMX201.G9: rRfY aptamer clone (nucleic acid)
chain: rGrGrArGfCrGfCrAfCfUfCrArGfCfCrAfCfUrArAfCrGrGfCfUrGrAfUfCfUfCrArGrGrAfCfUrArArAfUrArGfUfCrArAfCrArArGrGrAfUrGfCrGfUfUfUfCrGrAfCfCfUfCfUfCfUrGfCfUrArGfC
As for B5, the “Screen- Human/No Protein” value in series [2] (setting [4]) was found to be 2.06. The “Screen- Rabbit/No Protein” value in series [3] (rRfY aptamers) is 2.11. Moreover, the Kd in series [1] (setting [5]) worked out at 182 nM.

B6: AMX200.C11: DNA SELEX 1 aptamer clone (nucleic acid)
DNA: CTACCTACGATCTGACTAGCGGAATGAGAGTGCTGATGGATTGCTCAGGTCTGCTGGCTGCTTACTCTCATGTAGTTCC
modifications: DNA, backbone not given here
notes: DNA SELEX 1 aptamer clone
Take B6: the “Screen- Human/No Protein” value in series [2] (setting [6]) was 6.00. In addition, the “Screen- Rabbit/No Protein” value in series [3] (DNA SELEX 1 aptamers) is given as 3.64. For the same molecule, the Kd in series [1] (setting [7]) turned out to be 26 nM.

B7: AMX199.B3: DNA SELEX 1 aptamer clone (nucleic acid)
DNA: CTACCTACGATCTGACTAGCGGAATGAGAATGCTGATGGATTGCTCAGGTCTGCTGGCTGCTTACTCTCATGTAGTTCC
modifications: DNA, backbone not given here
notes: DNA SELEX 1 aptamer clone
B7: the “Screen- Human/No Protein” value in series [2] (setting [6]) turned out to be 1.76. Also, in series [3] (DNA SELEX 1 aptamers), the “Screen- Rabbit/No Protein” value is 1.99. Besides, the Kd in series [1] (setting [7]) is 30 nM.

B8: AMX200.D3: DNA SELEX 1 aptamer clone (nucleic acid)
DNA: CTACCTACGATCTGACTAGCGCAATGAGGATGCTGATGGATTGCTCAGGTCTGCTGGCTGCTTACTCTCATGTAGTTCC
modifications: DNA, backbone not given here
notes: DNA SELEX 1 aptamer clone
In the case of B8, the “Screen- Human/No Protein” value in series [2] (setting [6]) is reported as 2.68. In addition, in series [3] (DNA SELEX 1 aptamers), the “Screen- Rabbit/No Protein” value stood at 2.41. In addition, the Kd in series [1] (setting [7]) was 36 nM.

B9: AMX199.D11: DNA SELEX 1 aptamer clone (nucleic acid)
DNA: CTACCTACGATCTGACTAGCGGAATGAGAATGCTGGTGGATTGCTCAGGTCTGCTGGCTGCTTACTCTCATGTAGTTCC
modifications: DNA, backbone not given here
notes: DNA SELEX 1 aptamer clone
Take B9: the “Screen- Human/No Protein” value in series [2] (setting [6]) is 4.19. For the same molecule, the “Screen- Rabbit/No Protein” value in series [3] (DNA SELEX 1 aptamers) was 3.42. Also, the Kd in series [1] (setting [7]) was 30 nM.

B10: AMX199.G10: DNA SELEX 1 aptamer clone (nucleic acid)
DNA: CTACCTACGATCTGACTAGCGGAATGAGAATGTTGGTGGATTGCTCAGGTCTGCTGGCTGCTTACTCTCATGTAGTTCC
modifications: DNA, backbone not given here
notes: DNA SELEX 1 aptamer clone
For B10, the “Screen- Human/No Protein” value in series [2] (setting [6]) is 4.97. In addition, the “Screen- Rabbit/No Protein” value in series [3] (DNA SELEX 1 aptamers) came to 2.66. Moreover, the Kd in series [1] (setting [7]) was found to be 22 nM.

B11: AMX199.F7: DNA SELEX 1 aptamer clone (nucleic acid)
DNA: CTACCTACGATCTGACTAGCGGAATGAGAGTGCTGGTGGATTGCTCAGGTCTGCTGGCTGCTTACTCTCATGTAGTTCC
modifications: DNA, backbone not given here
notes: DNA SELEX 1 aptamer clone
Regarding B11, in series [2] (setting [6]), the “Screen- Human/No Protein” value was 5.47. The “Screen- Rabbit/No Protein” value in series [3] (DNA SELEX 1 aptamers) turned out to be 5.00. The Kd in series [1] (setting [7]) turned out to be 22 nM.

B12: AMX199.C2: DNA SELEX 1 aptamer clone (nucleic acid)
DNA: CTACCTACGATCTGACTAGCGGAATGAGAATGCTGGTGGATTGCCCAGGTCTGCTGGCTGCTTACTCTCATGTAGTTCC
modifications: DNA, backbone not given here
notes: DNA SELEX 1 aptamer clone
With B12, the “Screen- Human/No Protein” value in series [2] (setting [6]) is given as 5.09. In addition, the “Screen- Rabbit/No Protein” value in series [3] (DNA SELEX 1 aptamers) came to 4.61. Further, the Kd in series [1] (setting [7]) was 17 nM.

B13: AMX199.C4: DNA SELEX 1 aptamer clone (nucleic acid)
DNA: CTACCTACGATCTGACTAGCGGAATGAGGATGCTGATGGATTGCACAGGTCTGCTGGCTGCTTACTCTCATGTAGTTCC
modifications: DNA, backbone not given here
notes: DNA SELEX 1 aptamer clone
For the molecule B13, in series [2] (setting [6]), the “Screen- Human/No Protein” value came out at 3.60. The “Screen- Rabbit/No Protein” value in series [3] (DNA SELEX 1 aptamers) was found to be 2.85. Besides, in series [1] (setting [7]), the Kd amounted to 34 nM.

B14: AMX199.B7: DNA SELEX 1 aptamer clone (nucleic acid)
DNA: CTACCTACGATCTGACTAGCGGGATGAGAGTGCTGGTGGATTGCTCAGGTCTGCTGGCTGCTTACTCTCATGTAGTTCC
modifications: DNA, backbone not given here
notes: DNA SELEX 1 aptamer clone
In the case of B14, the “Screen- Human/No Protein” value in series [2] (setting [6]) was determined as 4.08. For the same molecule, the “Screen- Rabbit/No Protein” value in series [3] (DNA SELEX 1 aptamers) came to 3.65. The Kd in series [1] (setting [7]) came out at 29 nM.

B15: AMX200.F11: DNA SELEX 1 aptamer clone (nucleic acid)
DNA: CTACCTACGATCTGACTAGCGGAATGAGGATGCTGGTGGATTGCTCAGGTCTGCTGGCTGCTTACTCTCATGTAGTTCC
modifications: DNA, backbone not given here
notes: DNA SELEX 1 aptamer clone
B15: in series [2] (setting [6]), the “Screen- Human/No Protein” value is recorded as 3.83. Further, the “Screen- Rabbit/No Protein” value in series [3] (DNA SELEX 1 aptamers) stood at 3.25. In addition, the Kd in series [1] (setting [7]) was determined as 34 nM.

B16: AMX198.C10: rRfY aptamer clone (nucleic acid)
chain: rGrGrArGfCrGfCrAfCfUfCrArGfCfCrAfCfUrGrGfUfCfCfUfUrArGfCfUrArGfUfUrGfUrAfCfUrArGfCrGrAfCrGfCrGfUfUfCrArGrGfUrGrGfUfUfUfCrGrAfCfCfUfCfUfCfUrGfCfUrArGfC
As for B16, the “Screen- Human/No Protein” value in series [2] (setting [4]) turned out to be 1.40. Further, in series [3] (rRfY aptamers), the “Screen- Rabbit/No Protein” value was found to be 3.39. The Kd in series [1] (setting [5]) turned out to be 555 nM.

B17: AMX198.E11: rRfY aptamer clone (nucleic acid)
chain: rGrGrArGfCrGfCrAfCfUfCrArGfCfCrAfCrGrGfUrArAfCrAfUfUrGfUfUfUfCfCrGrGfCrGrAfUfUfCfUfUfUrGrArAfCrGfCfCrGfUfCrGfUrGrGfUfUfUfCrGrAfCfCfUfCfUfCfUrGfCfUrArGfC
In the case of B17, the “Screen- Human/No Protein” value in series [2] (setting [4]) turned out to be 1.03. Besides, the “Screen- Rabbit/No Protein” value in series [3] (rRfY aptamers) came out at 2.37. Further, in series [1] (setting [5]), the Kd was found to be 1060 nM.
